To fix the notation:
B1: Serine/threonine-protein kinase Nek9 (Homo sapiens), Q8TD19 (parent)
chain: MSVLGEYERHCDSINSDFGSESGGCGDSSPGPSASQGPRAGGGAAEQEELHYIPIRVLGRGAFGEATLYRRTEDDSLVVWKEVDLTRLSEKERRDALNEIVILALLQHDNIIAYYNHFMDNTTLLIELEYCNGGNLYDKILRQKDKLFEEEMVVWYLFQIVSAVSCIHKAGILHRDIKTLNIFLTKANLIKLGDYGLAKKLNSEYSMAETLVGTPYYMSPELCQGVKYNFKSDIWAVGCVIFELLTLKRTFDATNPLNLCVKIVQGIRAMEVDSSQYSLELIQMVHSCLDQDPEQRPTADELLDRPLLRKRRREMEEKVTLLNAPTKRPRSSTVTEAPIAVVTSRTSEVYVWGGGKSTPQKLDVIKSGCSARQVCAGNTHFAVVTVEKELYTWVNMQGGTKLHGQLGHGDKASYRQPKHVEKLQGKAIRQVSCGDDFTVCVTDEGQLYAFGSDYYGCMGVDKVAGPEVLEPMQLNFFLSNPVEQVSCGDNHVVVLTRNKEVYSWGCGEYGRLGLDSEEDYYTPQKVDVPKALIIVAVQCGCDGTFLLTQSGKVLACGLNEFNKLGLNQCMSGIINHEAYHEVPYTTSFTLAKQLSFYKIRTIAPGKTHTAAIDERGRLLTFGCNKCGQLGVGNYKKRLGINLLGGPLGGKQVIRVSCGDEFTIAATDDNHIFAWGNGGNGRLAMTPTERPHGSDICTSWPRPIFGSLHHVPDLSCRGWHTILIVEKVLNSKTIRSNSSGLSIGTVFQSSSPGGGGGGGGGEEEDSQQESETPDPSGGFRGTMEADRGMEGLISPTEAMGNSNGASSSCPGWLRKELENAEFIPMPDSPSPLSAAFSESEKDTLPYEELQGLKVASEAPLEHKPQVEASSPRLNPAVTCAGKGTPLTPPACACSSLQVEVERLQGLVLKCLAEQQKLQQENLQIFTQLQKLNKKLEGGQQVGMHSKGTQTAKEEMEMDPKPDLDSDSWCLLGTDSCRPSL

One assay covers variants of B1. The settings on record: with plk1_human PLK1, P53350.
Sequence of plk1_human PLK1, P53350 (P53350 whole entry): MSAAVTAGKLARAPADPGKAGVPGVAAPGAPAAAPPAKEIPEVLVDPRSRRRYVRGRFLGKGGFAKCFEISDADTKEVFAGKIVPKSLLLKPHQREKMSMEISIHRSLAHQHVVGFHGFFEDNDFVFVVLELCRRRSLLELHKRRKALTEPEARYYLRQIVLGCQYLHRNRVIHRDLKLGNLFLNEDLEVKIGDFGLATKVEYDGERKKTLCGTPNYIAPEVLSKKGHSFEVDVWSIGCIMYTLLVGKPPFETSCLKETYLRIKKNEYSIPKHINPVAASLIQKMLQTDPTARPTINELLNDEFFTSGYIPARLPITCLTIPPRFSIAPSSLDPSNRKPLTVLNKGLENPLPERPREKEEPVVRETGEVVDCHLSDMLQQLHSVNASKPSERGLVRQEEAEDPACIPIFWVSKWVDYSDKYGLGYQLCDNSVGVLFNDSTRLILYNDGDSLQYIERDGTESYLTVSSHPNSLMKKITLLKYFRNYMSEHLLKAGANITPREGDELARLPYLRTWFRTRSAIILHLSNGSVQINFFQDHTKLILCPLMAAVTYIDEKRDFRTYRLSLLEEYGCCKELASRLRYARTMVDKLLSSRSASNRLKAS
As for S869A, the “effect of a mutation on the interaction” value is given as “disrupting interaction”.

Another assay covers variants of B1. As to conditions: with plk1_human PLK1, P53350. The source holds these as a separate data set.
Regarding S750A, the “effect of a mutation on the interaction” value is listed as “decreasing interaction”.

The values are drawn from IntAct's records for PubMed 21642957.
